Patent US20200087364A1 (IMMATICS BIOTECHNOLOGIES, published 2020)

Target: T1, HLA-A*01:01 (human)
T1 construct: MHC class I monomer first loaded with a UV-sensitive peptide (not identified) that is cleaved by UV irradiation and exchanged for the tested peptide; captured on streptavidin plates, detected with anti-β2m; also called peptide-receptive MHC molecules
Experiment: UV-ligand exchange, anti-b2m ELISA
Text: Candidate peptides for T cell based therapies according to the present invention were further tested for their MHC binding capacity (affinity). The individual peptide-MHC complexes were produced by UV-ligand exchange, where a UV-sensitive peptide is cleaved upon UV-irradiation and exchanged with the peptide of interest as analyzed. Only peptide candidates that can effectively bind and stabilize the peptide-receptive MHC molecules prevent dissociation of the MHC complexes. To determine the yield of the exchange reaction, an ELISA was performed based on the detection of the light chain (β2m) of stabilized MHC complexes. The assay was performed as generally described in Rodenko et al. (Rodenko et al., 2006)
96 well MAXISorp plates (NUNC) were coated over night with 2 ug/ml streptavidin in PBS at room temperature, washed 4× and blocked for 1 h at 37° C. in 2% BSA containing blocking buffer. Refolded HLA-A*02:01/MLA-001 monomers served as standards, covering the range of 15-500 ng/ml. Peptide-MHC monomers of the UV-exchange reaction were diluted 100-fold in blocking buffer. Samples were incubated for 1 h at 37° C., washed four times, incubated with 2 ug/ml HRP conjugated anti-β2m for 1 h at 37° C., washed again and detected with TMB solution that is stopped with […]. Absorption was measured at 450 nm.

For VQDPSLPVY, the peptide exchange yield was 20 to 50%.

PSEVPVDSHY was tested, and the peptide exchange yield was > 75%.

LPSPAATIWDY showed a peptide exchange yield of 50 to 75%.

In the case of STDPNIVRK, the peptide exchange yield is reported as 50 to 75%.

For EVLDSLLAQY, the peptide exchange yield was 20 to 50%.

Work on KTELETALYY yielded a peptide exchange yield of 50 to 75%.

KSFDDIAKY was tested, and the peptide exchange yield was 20 to 50%.

LLPLLVMAY gave a peptide exchange yield of 20 to 50%.

In the case of LSSAVNPIIY, the peptide exchange yield is reported as 20 to 50%.

For DTTSHTYLQY, the peptide exchange yield was 20 to 50%.

YRDPVFVSL showed a peptide exchange yield of 20 to 50%.

For ETDWGLLKGHTY, the peptide exchange yield was > 75%.

For NSMLDPLVY, the peptide exchange yield was > 75%.

With RINSATGQY the peptide exchange yield was 20 to 50%.

With IPQDECLRY the peptide exchange yield was 50 to 75%.

For KSEMNVNMKY, the peptide exchange yield was > 75%.

Binder DVERIKDTY has a peptide exchange yield of 20 to 50%.

WELDSLEY gave a peptide exchange yield of 20 to 50%.

In the case of VLDSLLAQY, the peptide exchange yield is reported as > 75%.

SSERGSPIEKY gave a peptide exchange yield of 50 to 75%.

With YADIHGDLL the peptide exchange yield was 50 to 75%.

For FTAQLQLY, the peptide exchange yield was 50 to 75%.

Binder VTDIDELGK has a peptide exchange yield of 50 to 75%.

DTLEAATSLY showed a peptide exchange yield of 20 to 50%.

In the case of YLESHGLAY, the peptide exchange yield is reported as > 75%.

Binder GVGFTELEY has a peptide exchange yield of 50 to 75%.

Work on GYVCNACGLY yielded a peptide exchange yield of 20 to 50%.

AMMQEAQLAY showed a peptide exchange yield of 50 to 75%.

For YTDLTTIQV, the peptide exchange yield was > 75%.

Binder HAFESNNFIY has a peptide exchange yield of 20 to 50%.

MTEGSTVNTEY was tested, and the peptide exchange yield was > 75%.

LSDNAANRY gave a peptide exchange yield of 50 to 75%.

QITPKHNGLY gave a peptide exchange yield of 20 to 50%.

ARLEGEIATY showed a peptide exchange yield of 20 to 50%.

With FLFNDALLY the peptide exchange yield was > 75%.

In the case of GSPDAVVSY, the peptide exchange yield is reported as 10 to 20%.

VAEPPVVCSY showed a peptide exchange yield of 20 to 50%.

For NVKHFLNDLY, the peptide exchange yield was 50 to 75%.

Binder LSDIDSRYI has a peptide exchange yield of 20 to 50%.

Binder SLMVASLTY has a peptide exchange yield of 20 to 50%.

In the case of GIEMTYETY, the peptide exchange yield is reported as 20 to 50%.

Binder VTKYIAGPY has a peptide exchange yield of 20 to 50%.

LMDEGAVLTL gave a peptide exchange yield of 20 to 50%.

NAVDVVPSSF gave a peptide exchange yield of 10 to 20%.

DTDPLKAAGL was tested, and the peptide exchange yield was 10 to 20%.

RPSSVLTIY gave a peptide exchange yield of 50 to 75%.

For VMDTLGLFY, the peptide exchange yield was > 75%.

Binder CGPNEINHFY has a peptide exchange yield of 20 to 50%.

Binder RTDEGDNRVW has a peptide exchange yield of 20 to 50%.

RYLNIVHATQLY was tested, and the peptide exchange yield was 20 to 50%.

In the case of APDEVVALL, the peptide exchange yield is reported as 20 to 50%.

In the case of GTNLPTLLW, the peptide exchange yield is reported as 10 to 20%.

For LTSEDTGAY, the peptide exchange yield was 50 to 75%.

With LTDSFLLRF the peptide exchange yield was > 75%.

MTDVFIDY was tested, and the peptide exchange yield was 50 to 75%.

In the case of AQEAAVFLTLY, the peptide exchange yield is reported as 50 to 75%.

In the case of DLKIDLAAQY, the peptide exchange yield is reported as 20 to 50%.

TDVERIKDTY gave a peptide exchange yield of 50 to 75%.

NLDHYTNAY was tested, and the peptide exchange yield was 50 to 75%.

Binder DCMDTEGSYM has a peptide exchange yield of 20 to 50%.

SIEIDHTQY showed a peptide exchange yield of 20 to 50%.

With ASDDFRSKY the peptide exchange yield was 50 to 75%.

In the case of IVADDTVY, the peptide exchange yield is reported as 50 to 75%.

For ESAPKEVSRY, the peptide exchange yield was 20 to 50%.

In the case of AILHHLYFY, the peptide exchange yield is reported as 10 to 20%.

SMIRVGTNY gave a peptide exchange yield of 20 to 50%.

With KPTEDSANVY the peptide exchange yield was 50 to 75%.

CVIETFHKY showed a peptide exchange yield of 50 to 75%.
